Common to all, as to experiment: cell-based or functional assay
The target in assay [1] is human glucagon receptor (human, UniProt P47871 26-477).
Target sequence in this assay (P47871 26-477): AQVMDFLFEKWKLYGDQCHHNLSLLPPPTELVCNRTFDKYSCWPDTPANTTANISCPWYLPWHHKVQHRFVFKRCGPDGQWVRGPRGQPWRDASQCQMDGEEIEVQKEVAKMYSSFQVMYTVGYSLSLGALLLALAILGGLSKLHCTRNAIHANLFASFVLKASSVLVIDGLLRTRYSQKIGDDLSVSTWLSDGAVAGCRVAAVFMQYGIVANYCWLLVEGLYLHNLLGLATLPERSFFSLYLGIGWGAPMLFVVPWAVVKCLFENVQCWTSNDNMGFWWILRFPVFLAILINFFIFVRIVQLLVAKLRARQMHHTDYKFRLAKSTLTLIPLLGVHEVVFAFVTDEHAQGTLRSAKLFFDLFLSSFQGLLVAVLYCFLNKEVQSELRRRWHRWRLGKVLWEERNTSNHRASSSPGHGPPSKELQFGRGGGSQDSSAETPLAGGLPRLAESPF
In assay [2] the target is human glucagon-like peptide-1 receptor (human, UniProt P43220 24-463).
Assay [3] has as its target human glucagon receptor (human, UniProt P47871 26-477). This is another data set of the same source.
Target sequence in this assay (P47871 26-477): as above
A further assay concerns the target human GLP-1 receptor (human, UniProt P43220 24-463).

Where no end group is shown, it is not given here. [ ]: non-standard residue; d: D form. Aib = CC(C)(N)C(=O)O

B1: Conjugate 40741: aGIPR 5G12 SEFL2 E384C-39903 (other)
heavy: QVQLVESGGGVVQPGRSLRLSCTASGFTFSSYGIHWVRQAPGKGLEWVAVIWYDGSNKFHADSVKGRFTISRDNSKNTLYLQMNSLRAEDSAMYFCARGKVAGMPEAFEIWGQGTKVTVSSASTKGPSVFPLAPSSKSTSGGTAALGCLVKDYFPEPVTVSWNSGALTSGVHTFPAVLQSSGLYSLSSVVTVPSSSLGTQTYICNVNHKPSNTKVDKKVEPKSCDKTHTCPPCPAPELLGGPSVFLFPPKPKDTLMISRTPEVTCVVVDVSHEDPCVKFNWYVDGVEVHNAKTKPCEEQYGSTYRCVSVLTVLHQDWLNGKEYKCKVSNKALPAPIEKTISKAKGQPREPQVYTLPPSREEMTKNQVSLTCLVKGFYPSDIAVEWESNGQPENNYKTTPPVLDSDGSFFLYSKLTVDKSRWQQGNVFSCSVMHEALHNHYTQKSLSLSPGK
light: DIQLTQSPSSLSASVGDRVTITCRASQTISRFLNWYQQKPGKAPELLIYVASSLQSGVPSRFSGSGSGTDFTLTISSLQPEDFATYYCQQSYSTLISFGQGTKLEITRTVAAPSVFIFPPSDEQLKSGTASVVCLLNNFYPREAKVQWKVDNALQSGNSQESVTEQDSKDSTYSLSSTLTLSKADYEKHKVYACEVTHQGLSSPVTKSFNRGEC
peptide: HSQGTFTSDYSKYLDQRRAQDFVQWLLKT
chain: GSPAPAPAPAPAPAPAPAPAPASGG
modifications: N-term acetyl-thioether to Cys; d-Ser2; K28 eps-NH linked to linker C-term; C276 conjugated to linker
In the case of B1, the “hGCGR EC50 (pM)” value with human glucagon receptor [1] was determined as 40.9 pM. Also, in assay [2], the “hGLP-1R EC50 (pM)” value was 8020 pM.

B2: Conjugate 88013: aGIPR 5G12 SEFL2 E384C-87021 (other)
heavy: B1 heavy
light: B1 light
peptide: HSQGTFTSDYSKYLDAKRAQEFVEWLLKS
chain: GGGGSGGGGSPAPAPAPAPAPASGG
modifications: N-terminus conjugated to heavy-chain Cys; K28 side chain amide-linked to linker C-terminus; C276 conjugated to linker
For the molecule B2, the “hGCGR EC50 (pM)” value in the assay with human glucagon receptor [3] was determined as 41.3 pM.

B3: Conjugate 92868: aGIPR 5G12 SEFL2 E384C-92840 (other)
heavy: B1 heavy
light: B1 light
peptide: HSQGTFTSDYSKYLDEKRAREFVEWLLKS
chain: GGGGSGGGGSPAPAPAPAPAPASGG
modifications: N-terminus conjugated to heavy-chain Cys; d-Ser2; K28 side chain amide-linked to linker C-terminus; C276 conjugated to linker
Consider B3, for which the “hGCGR EC50 (pM)” value with human glucagon receptor [3] amounted to 127 pM. The “hGLP-1R EC50 (pM)” value with human GLP-1 receptor was determined as 289 pM.

B4: Conjugate 91659: aGIPR 5G12 SEFL2 E384C-91255 (other)
heavy: B1 heavy
light: B1 light
peptide: HSQGTFTSDYSKYLDEKRAQEFVEWLLKS
chain: GGGGSGGGGSPAPAPAPAPAPASGG
modifications: N-terminus conjugated to heavy-chain Cys; d-Ser2; K28 side chain amide-linked to linker C-terminus; C276 conjugated to linker
Regarding B4, in the assay with human glucagon receptor [3], the “hGCGR EC50 (pM)” value came out at 152 pM. The “hGLP-1R EC50 (pM)” value in the assay with human GLP-1 receptor is 6750 pM.

B5: Conjugate 25435: Fc SEFL2 T487C-15997 (other)
chain 1: DKTHTCPPCPAPELLGGPSVFLFPPKPKDTLMISRTPEVTCVVVDVSHEDPEVKFNWYVDGVEVHNAKTKPCEEQYGSTYRCVSVLTVLHQDWLNGKEYKCKVSNKALPAPIEKTISKAKGQPREPQVYTLPPSREEMCKNQVSLTCLVKGFYPSDIAVEWESNGQPENNYKTTPPVLDSDGSFFLYSKLTVDKSRWQQGNVFSCSVMHEALHNHYTQKSLSLSPGK
peptide: H[dS]QGTFTSDYSKYLD[Aib]RRAQDFVQWLLKT
chain 2: Ac-GSPAPAPAPAPAPAPAPAPAPASGG
modifications: not fully specified; also: thioether at chain A 139 to a chain's N-terminus via acetyl, bond at chain B 28 to a chain's C-terminus
Consider B5, for which the “hGCGR EC50 (pM)” value in the assay with human glucagon receptor [1] was determined as 9.1 pM. Also, the “hGLP-1R EC50 (pM)” value in assay [2] came out at 9770 pM.

Values taken from patent publication US20250276080A1 (Amgen, published 2025).
